B1: ANGPTL4: Recombinant human ANGPTL4 (Angiopoietin-like 4), full length, SEQ ID NO: 1, purchased from R&D Systems (protein, listed as Homo sapiens)
chain: MSGAPTAGAALMLCAATAVLLSAQGGPVQSKSPRFASWDEMNVLAHGLLQLGQGLREHAERTRSQLSALERRLSACGSACQGTEGSTDLPLAPESRVDPEVLHSLQTQLKAQNSRIQQLFHKVAQQQRHLEKQHLRIQHLQSQFGLLDHKHLDHEVAKPARRKRLPEMAQPVDPAHNVSRLHRLPRDCQELFQVGERQSGLFEIQPQGSPPFLVNCKMTSDGGWTVIQRRHDGSVDFNRPWEAYKAGFGDPHGEFWLGLEKVHSITGDRNSRLAVQLRDWDGNAELLQFSVHLGGEDTAYSLQLTAPVAGQLGATTVPPSGLSVPFSTWDQDHDLRRDKNCAKSLSGGWWFGTCSHSNLNGQYFRSIPQQRQKLKKGIFWKTWRGRYYPLQATTMLIQPMAAEAAS
B2: cANGPTL4: C-terminal fragment of ANGPTL4, aa 164-406, fibrinogen-like domain, purchased from R&D Systems (protein, listed as Homo sapiens)
chain: RLPEMAQPVDPAHNVSRLHRLPRDCQELFQVGERQSGLFEIQPQGSPPFLVNCKMTSDGGWTVIQRRHDGSVDFNRPWEAYKAGFGDPHGEFWLGLEKVHSITGDRNSRLAVQLRDWDGNAELLQFSVHLGGEDTAYSLQLTAPVAGQLGATTVPPSGLSVPFSTWDQDHDLRRDKNCAKSLSGGWWFGTCSHSNLNGQYFRSIPQQRQKLKKGIFWKTWRGRYYPLQATTMLIQPMAAEAAS
B3: nANGPTL4: N-terminal fragment of ANGPTL4, aa 26-164, SEQ ID NO: 24, purchased from R&D Systems (protein)
chain: GPVQSKSPRFASWDEMNVLAHGLLQLGQGLREHAERTRSQLSALERRLSACGSACQGTEGSTDLPLAPESRVDPEVLHSLQTQLKAQNSRIQQLFHKVAQQQRHLEKQHLRIQHLQSQFGLLDHKHLDHEVAKPARRK
modifications: nANGPTL4

Experiments:
[1] = test system: SCID mice grafted with human skin infected with Nm 2C4.3; assay: Vascular lesions in SCID mice grafted with human skin infected with N. meningitidis (4 h); assay type: in vivo; conditions: for vessel thrombosis in skin grafts / integrity of the endothelial cell junctions (VE-cadherin staining) / vascular colonization of human dermal vessels at 4 hours post-infection: 1 μg/mouse i.v.; for vessel thrombosis in skin grafts: 4 h post-infection
Experimental: FIG. 7: ANGPTL4 reduces signs of thrombosis, vascular injury and inflammation. A-D, SCID mice grafted with human skins were infected intravenously with Nm 2C4.3 wild-type strain (5×10^6 bacteria) or left uninfected. A period of 30 min or 2 h after bacterial challenge, mice received 1 μg of recombinant human ANGPTL4, nANGPTL4 or cANGPTL4 intravenously or the vehicle as a control. Mice were killed at 4 h post-challenge. This experiment was performed twice with n=3 or 4 mice per group, using skin from two different donors. A, A schematic representation of the protocols used in vivo. B, Control bacteraemia 4 h post-infection (mean±s.e.m.). C, Bacterial colonization within the skin grafts as assessed by immunofluorescence analysis was quantified using ImageJ software as the ratio between bacterial surface colonization and the lumen surface of the vessels. A total of 30-50 vessels per mouse were analysed. Error bars show mean±s.e.m. D, Thrombus formation within the skin grafts was assessed by immunofluorescence analysis and quantified using ImageJ as the ratio between thrombus surfaces and the lumen surface of the vessels. A total of 30-50 vessels per mouse were analysed. Error bars show mean±s.e.m.; *** P<0.0001; ns P=0.0541 two-tailed Student's t-test.
Six-week-old CB17/Icr-Prkdcscid female mice were obtained from Janvier Labs. Human skin tissues were obtained from adult patients undergoing plastic surgery in the Service de Chirurgie Plastique et Reconstructive of the Groupe Hospitalier Saint-Joseph. […] Experimental procedures were performed as previously described in accordance with the guidelines of the Institut National de la Santé et de la Recherche Médicale and conformed to the European ethical legislation (Directive 2010/63/EU). The experimental protocol was approved by the Animal Experimentation Ethics Committee of the Université Paris Descartes (consent forms CEEA34.O.J.L.039.12 and 2018012515596498). […]. A skin flap was created and a full thickness human skin graft was placed onto the wound bed. The transplants were held in place with 6-0 non-absorbable monofilament suture materials, and the flap was then sutured above the transplant. Grafted mice were infected 4-6 weeks after human skin transplantation. N. meningitidis was grown overnight at 37° C. on GCB agar plates prepared without iron and supplemented with 15 μM deferoxamine (Desferal, Novartis). Bacterial colonies were harvested and cultured in RPMI media with 1% BSA medium and 0.06 μM deferoxamine with gentle agitation to reach the exponential phase of growth. Bacteria were then resuspended in physiological saline solution. Mice were infected intravenously with 200 μl (5×10^6 bacteria) of this bacterial suspension. A 10 mg dose of human holotransferrin (R&D Systems) was administered intraperitoneally just before infection. Mice were killed at 4 h after infection. Human skin grafts were carefully collected using a sterile cutter. The tissue was washed in PBS and fixed overnight at 4° C. in 4% paraformaldehyde in phosphate buffer. After washing in phosphate buffer, the specimens were embedded in OCT medium and then frozen at −80° C. Sections of the dermis (7 μm thick) were immobilized on Superfrost Plus microscope slides and subjected to immunofluorescence analysis. Sections were incubated with the primary antibodies for 1 h in PBS/3% BSA then DAPI was added to Alexa-conjugated secondary antibodies for 1 h. After additional washing, coverslips were mounted in glycergel (Dako) and were further analysed using a slide scanner (Lamina, Perkin Elmer). Analysis of the images was performed using ImageJ software (NIH). […]

[2] = test system: Balb/c mice challenged with LPS; assay: LPS-induced endotoxemia (sepsis) in mice; assay type: in vivo; conditions: for sepsis-associated mortality / survival rate: 2 μg/mouse i.v.
Experimental: FIG. 9: ANGPTL4 protects against LPS-induced endotoxemia by preventing vascular dysfunction and organ failure. A-B, Balb/c mice received LPS (5 mg kg-1, i.p.); 30 min after LPS challenge, mice received recombinant human ANGPTL4 (2 μg, intravenously), or vehicle as a control. A, A schematic representation of the protocol used. B, Survival curve (n=16 mice per group): **** P<0.0001; two-sided log-rank Mantel-Cox survival analysis. C,D, Balb/c mice received LPS (5 mg kg-1, i.p.); 30 min after LPS challenge, mice received nANGPTL4 (2 μg, intravenously), or vehicle as a control. C, A schematic representation of the protocol used. D, Survival curve (n=6 mice per group): ** P=0.0033; two-sided log-rank Mantel-Cox survival analysis. E, F, Balb/c mice received LPS (5 mg kg-1, i.p.); 30 min after LPS challenge, mice received Peptide 1 (2 μg, intravenously), or vehicle as a control. E, A schematic representation of the protocol used. F, Survival curve (n=6 mice per group): * P=0.0163; two-sided log-rank Mantel-Cox survival analysis. G, Balb/c mice received LPS (5 mg kg-1. i.p.): 30 min after LPS challenge, mice received recombinant human peptide P9 (2 μg. intravenously). or vehicle as a control. Survival curves (n=6 mice per group). *** P<0.001: two-sided log-rank Mantel-Cox survival analysis. H. Balb/c mice received LPS (4 mg kg-1. i.p.) together with anti-ANGPTL4 blocking antibody (10 μg kg-1. i.v) or vehicle as a control. 18 h after LPS challenge. mice were perfused with Evans blue for 1 h. were killed and brain were extracted. Quantification analysis of Evans blue extravasation (n=4 mice per group). Bars and error bars show the mean±s.e.m., respectively, from two independent experiments: *** P<0.001: NS, not significant (P>0.05) one-way ANOVA Tukey's multiple comparison test.
Female BALB/c mice, obtained from Janvier Labs, 9-10 weeks of age, were administered LPS at 5 mg/kg intraperitoneally and survival was monitored for 72 h (n=12 per group). BALB/c mice were randomly divided into 2 groups: LPS and LPS+Angptl4. Angptl4 (2 μg/mice) or vehicle (physiological saline solution) was administered intravenously 30 min after LPS challenge. In some experiments, blood serum, kidney and lung were collected at 18 h post-LPS challenge. Kidney and lungs were fixed in 4% PFA, embedded in paraffin, and 5-μm sections were cut from each block and stained with H&E. The stained sections were observed and acquired using a slide scanner (Lamina, Perkin Elmer). Analysis of the images was performed using ImageJ software (NIH).
Since severe endothelial dysfunction, leading to dysregulation of hemostasis and vascular dysfunction, is central to the progression to organ failure during sepsis, we analysed whether ANGPTL4 could play a protective role in sepsis, using a lipopolysaccharide (LPS)-induced endotoxemia (FIG. 9A). After LPS-challenge (5 mg kg-1, i.p.), all mice died within two days (FIG. 9B).

[3] = 18 h post-LPS challenge, data not shown

| Molecule | vessel thrombosis in skin grafts [1] | integrity of the endothelial cell junctions (VE-cadherin staining) ([1]; data not shown) | effect on inflammatory markers upon administration at 2 h ([1]; administration 2 h post-infection, data not shown) | reduction of serum levels of TNF-α, IL-6, IL-8, soluble E-selectin, ICAM-1, VCAM-1, Angiopoetin-2, Thrombomodulin ([1]; mice sera, early administration (30 min), data not shown) | LPS-induced acute lung injury (histopathology) [2, 3] | LPS-induced renal haemorrhage [2, 3] | sepsis-associated mortality / survival rate ([2]; LPS 5 mg kg-1 i.p.) | mice surviving LPS challenge ([2]; LPS 5 mg kg-1 i.p., 2 μg/mouse i.v. 30 min after LPS, all control mice died within two days) [%] | overall weight loss ([2]; compared to vehicle-treated control groups) | body temperature ([2]; data not shown) | vascular colonization of human dermal vessels at 4 hours post-infection [1] | production of proinflammatory factors and biomarkers of vascular inflammation ([1]; 1 μg/mouse, data not shown) |
| --- | --- | --- | --- | --- | --- | --- | --- | --- | --- | --- | --- | --- |
| B1 | largely reduced vessel thrombosis | preserved the integrity of the endothelial cell junctions | no effect | 60-80% | no pathological signs | no sign of haemorrhage | markedly reduced sepsis-associated mortality rate | 80 | not significantly reduced | rapidly stabilized |  |  |
| B2 | reduced vessel thrombosis |  |  |  |  |  | did not significantly increased the survival rate |  |  |  | no effect on vascular colonization | most efficient at preventing the production of proinflammatory factors and biomarkers of vascular inflammation |
| B3 | reduced vessel thrombosis | preserved the integrity of the endothelial cell junctions |  |  |  |  | reduced sepsis-associated mortality rate as efficiently as the full-length protein |  |  |  | no effect on vascular colonization |  |
